# B1: PRCWRGEGGGGIVRRADRAAVPGGGGRGDAEAAAKEAAAKEAAAKEAAAKKSDKPGGGGTSLDASIIWAMMQNGGGGLSKL (protein)
# chain: PRCWRGEGGGGIVRRADRAAVPGGGGRGDAEAAAKEAAAKEAAAKEAAAKKSDKPGGGGTSLDASIIWAMMQNGGGGLSKL
# notes: Recombinant fused polypeptide X-linker2-Y expressed in 293 cells
# B2: Acetyl-SDKPGGGGTSLDASIIWAMMQNGGGGLSKLGGGGSGGGGSGGGGSPRCWRGEGGGGIVRRADRAAVPGGGGRGD (protein)
# chain: SDKPGGGGTSLDASIIWAMMQNGGGGLSKLGGGGSGGGGSGGGGSPRCWRGEGGGGIVRRADRAAVPGGGGRGD
# modifications: N-acetyl
# notes: Recombinant fused polypeptide Y-linker1-X expressed in 293 cells
# Experiments:
# pulmonary infections = test: Mouse pneumonia model, pneumonia caused by pulmonary infections; type: in vivo, BALB/C mice; conditions: BALB/C mouse pneumonia model, nasal drip, average ± standard deviation
# Source text: (§1) A mouse pneumonia model was successfully established by using a nasal drip method. BALB/C mice with a body weight of 18-24 g were selected, and then anesthetized with ether on day 0, day 1 and day 2, respectively, prepared Streptococcus pneumoniae bacteria solution, adenovirus concentrated solution, Mycoplasma pneumoniae, Chlamydia pneumoniae, protozoa and pneumonia fungi were slowly dropped into the nasal cavity of the mice, so that the bacteria solutions entered the trachea and bronchi, and the bacteria solutions were prevented from flowing into the esophagus during the operation to avoid inactivation of the bacteria solutions, so that the mouse pneumonia model was established. After the model was successfully established, the recombinant fused polypeptides according to the present invention were administered.
# [1] = tested on: SD rats with renal fibrosis; test: Renal fibrosis animal model (ureter ligation); type: in vivo; conditions: 6 mg/kg s.c. once every five days, after 15 days
# Protocol: A renal fibrosis animal model was established. SD rats were anesthetized with 4% chloral hydrate, injected with 1 mL/100 g intraperitoneally, fixed to an operation board, and sterilized in an operation area for further use. […] Muscular layers and abdominal walls were sewed layer by layer, the suture was disinfected with alcohol. After SD rats woke up, the rats were put into a cage for feeding. In the blank group, ureter was not ligated, and other steps were the same.
# Then, the animals fell into a blank group, a model group, and recombinant fused polypeptide administration groups, and the administration was started on the second day after the operation, and was performed for 15 days. After administration for 15 days, blood was taken and supernatant was taken to detect the content of TGF-β1 in serum.
# [2] = tested on: SD rats with CCl4-induced hepatic fibrosis; test: CCl4-induced hepatic fibrosis animal model; type: in vivo; conditions: 40% CCl4 i.p. twice a week for 8 weeks, fused polypeptides 6 mg/kg s.c. once every five days
# Protocol: Modeling was performed on the rats. Each group other than the blank group was injected with 40% CCl4 intraperitoneally twice a week, the first injection was performed at 3 mL/kg, and then injection was performed at 2 mL/kg. Modeling was performed for 8 weeks to induce hepatic fibrosis. After the intraperitoneal injection of CCl4 for the fourth time, the drugs were administered according to Table 3. After induction for 8 weeks, the administration was stopped. The SD rats were dissected the next day, and blood was taken. The liver tissue was stored in a refrigerator at −80° C. for further use. The expression of HYP in the hepatic tissue of rats was detected. [table]
# Streptococcus pneumoniae = test: Mouse pneumonia model, bacterial pneumonia; type: in vivo; conditions: BALB/C mouse pneumonia model, nasal drip; average ± standard deviation
# Source text: as §1
# [3] = tested on: mice with bleomycin-induced skin fibrosis; test: Bleomycin-induced skin fibrosis model; type: in vivo, C57/BL black mice; conditions: C57/BL mice, bleomycin 10 μg/mL s.c. daily for 28 days, 10 mg/kg s.c. once every five days, 6 times, FIG. 6
# Protocol: Bleomycin (10 μg/mL) was injected subcutaneously every day for 28 days to form skin fibrosis. During the modeling period, the administration groups were given drugs for treatment. After modeling, the mice were killed on the next day, and the skin tissue of the mouse back was taken to detect the content of HYP in the skin tissue. [table]
# pneumonia fungi = test: Mouse pneumonia model, fungal pneumonia; type: in vivo; conditions: BALB/C mouse pneumonia model, nasal drip; average ± standard deviation
# Source text: as §1
# Mycoplasma pneumoniae = test: Mouse pneumonia model, mycoplasma pneumonia; type: in vivo; conditions: BALB/C mouse pneumonia model, nasal drip; average ± standard deviation
# Source text: as §1
# [4] = tested on: SD rats with bleomycin-induced pulmonary fibrosis; test: Bleomycin-induced pulmonary fibrosis animal model; type: in vivo; conditions: for Survival rate (%): bleomycin 5 mg/kg intratracheal, dosage 10 mg/kg (Table 2), administration cycle 15 days from day 7 after modeling; for hydroxyproline (HYP) content in lung tissue / content of TGF-β1 in serum, difference from the model group: bleomycin pulmonary fibrosis, after 15 days; for hydroxyproline (HYP) content in lung tissue: 10 mg/kg s.c. once every five days, FIG. 1; for content of TGF-β1 in serum, difference from the model group: fused polypeptides 10 mg/kg s.c. once every five days, nintedanib 25 mg/kg intragastric once a day
# Protocol: SD rats were anesthetized by intraperitoneal injection of 4% chloral hydrate with a concentration of 1 mL/100 g. After anesthesia, the rats were fixed and their necks were disinfected by using cotton with 75% alcohol. The skin of the rat neck was longitudinally cut with scissors, and the fascia and muscle were longitudinally bluntly torn with tweezers to expose the trachea. A syringe was inserted into the trachea to inject 5 mg/kg bleomycin, while a blank group was injected with an equal amount of normal saline. Then a rat plate was quickly erected and rotated, the rats' breathing was observed, the neck wound was sterilized after rotation and was sewn, and an amoxicillin anti-inflammatory drug was sprinkled on the suture. After the operation, the rats were put back into a dry and clean cage for resting, waiting for awakening. The rats were awakened after about 1-2 hours, and then fed normally. On the 7th day after modeling, modeling group animals randomly fell into a model group, a Nintedanib positive drug group, recombinant fused polypeptide 1, 2, 3 and 4 dosage groups, and a normal control group, and the groups were administered separately for an administration cycle of 15 days. Living situations of rats were observed every day and their weights were weighed. After administration for 15 days, the eyeballs were removed and blood was taken, the rats were dissected, and lungs were taken. The content of TGF-β1 in serum and the content of HYP in lung tissues were detected.
# Chlamydia pneumoniae = test: Mouse pneumonia model, chlamydia pneumonia; type: in vivo; conditions: BALB/C mouse pneumonia model, nasal drip; average ± standard deviation
# Source text: as §1
# [5] = tested on: mice with myocardial fibrosis; test: Isoprenaline-induced myocardial fibrosis animal model; type: in vivo; conditions: BALB/c mice, isoprenaline 5 mg/kg s.c. daily for 7 days, 12 mg/kg s.c. (Table 5), after the 8th day, FIG. 5
# Protocol: In the model group, the experimental mice were injected with isoprenaline (ISO) (5 mg/kg) subcutaneously on the back of the mice every day for 7 consecutive days, and the mice were injected with normal saline subcutaneously (200 μL/mouse) every day. In the blank group, normal saline was injected subcutaneously (200 μL/mouse) every day. […] After the 8th day, blood was taken and was centrifuged, the supernatant was taken, and the content of TGF-β1 in serum was detected.
# protozoa = test: Mouse pneumonia model, protozoal pneumonia; type: in vivo; conditions: BALB/C mouse pneumonia model, nasal drip; average ± standard deviation
# Source text: as §1
# adenovirus = test: Mouse pneumonia model, viral pneumonia; type: in vivo; conditions: BALB/C mouse pneumonia model, nasal drip; average ± standard deviation
# Source text: as §1
# [6] = listed as recombinant fused polypeptide III
# [7] = listed as recombinant fused polypeptide II
molecule,measurement,setting,value
B1,"Inhibitory effect, Pneumonia caused by pulmonary infections",pulmonary infections,58.81 ± 4.10
same,"Inhibitory effect, Pneumonia caused by pulmonary infections",pulmonary infections; [6],inhibitory effect
same,"content of TGF-β1 in serum, difference from the model group","[1]; FIG. 4, listed as recombinant fused polypeptide 3, 6 mg/kg",highly significantly different from the model group (**P<0.01)
same,"content of TGF-β1 in serum, difference from the model group","[1]; FIG. 4, listed as recombinant fused polypeptide III, 6 mg/kg",can lower the TGF-β1 content
same,"content of HYP in liver tissue, difference from the model group","[2]; FIG. 3, listed as Recombinant fused polypeptide 3",highly significantly different from the model group (***P<0.001)
same,"content of HYP in liver tissue, difference from the model group","[2]; FIG. 3, listed as recombinant fused polypeptide III",can lower the HYP content
same,"Inhibitory effect, Bacterial pneumonia",Streptococcus pneumoniae,48.79 ± 7.26
same,"content of HYP in skin tissue, difference from the model group","[3]; listed as recombinant fused polypeptide 3, 10 mg/kg",highly significantly different from the model group (**P<0.01)
same,"content of HYP in skin tissue, difference from the model group","[3]; listed as recombinant fused polypeptide III, 10 mg/kg",can lower the hydroxyproline content
same,"Inhibitory effect, Fungal pneumonia",pneumonia fungi,65.98 ± 3.64
same,"Inhibitory effect, Mycoplasma pneumonia",Mycoplasma pneumoniae,45.53 ± 4.33
same,Survival rate (%),[4],85.7%
same,Survival rate (%),[4]; listed as fused polypeptide 3,equivalent to that of the positive drug group
same,hydroxyproline (HYP) content in lung tissue,[4],can lower the hydroxyproline content
same,"content of TGF-β1 in serum, difference from the model group","[4]; FIG. 2, listed as fused polypeptide 3",highly significantly different from the model group (**P<0.01)
same,"content of TGF-β1 in serum, difference from the model group","[4]; FIG. 2, listed as recombinant fused polypeptide III",can lower the TGF-β1 content
same,"Inhibitory effect, Chlamydia pneumonia",Chlamydia pneumoniae,55.78 ± 4.32
same,"content of TGF-β1 in serum, difference from the model group",[5]; listed as recombinant fused polypeptide 3,significantly different from the model group (**P<0.01)
same,"content of TGF-β1 in serum, difference from the model group",[5]; [6],can lower the TGF-β1 content
same,"Inhibitory effect, Protozoal pneumonia",protozoa,68.29 ± 4.70
same,"Inhibitory effect, Viral pneumonia",adenovirus,69.54 ± 7.49
B2,"Inhibitory effect, Pneumonia caused by pulmonary infections",pulmonary infections,65.87 ± 3.19
same,"Inhibitory effect, Pneumonia caused by pulmonary infections",pulmonary infections; [7],inhibitory effect
same,"content of TGF-β1 in serum, difference from the model group","[1]; FIG. 4, listed as recombinant fused polypeptide 2, 6 mg/kg",highly significantly different from the model group (***P<0.001)
same,"content of TGF-β1 in serum, difference from the model group","[1]; FIG. 4, listed as recombinant fused polypeptide II, 6 mg/kg",can lower the TGF-β1 content
same,"content of HYP in liver tissue, difference from the model group","[2]; FIG. 3, listed as Recombinant fused polypeptide 2",highly significantly different from the model group (***P<0.001)
same,"content of HYP in liver tissue, difference from the model group","[2]; FIG. 3, listed as recombinant fused polypeptide II",can lower the HYP content
same,"Inhibitory effect, Bacterial pneumonia",Streptococcus pneumoniae,49.18 ± 5.32
same,"content of HYP in skin tissue, difference from the model group","[3]; listed as recombinant fused polypeptide 2, 10 mg/kg",highly significantly different from the model group (***P<0.001)
same,"content of HYP in skin tissue, difference from the model group","[3]; listed as recombinant fused polypeptide II, 10 mg/kg",can lower the hydroxyproline content
same,"Inhibitory effect, Fungal pneumonia",pneumonia fungi,63.07 ± 3.02
same,"Inhibitory effect, Mycoplasma pneumonia",Mycoplasma pneumoniae,45.72 ± 5.69
same,Survival rate (%),[4],85.7%
same,Survival rate (%),[4]; listed as fused polypeptide 2,equivalent to that of the positive drug group
same,hydroxyproline (HYP) content in lung tissue,[4],can lower the hydroxyproline content
same,"content of TGF-β1 in serum, difference from the model group","[4]; FIG. 2, listed as fused polypeptide 2",highly significant different from the model group (***P<0.001)
same,"content of TGF-β1 in serum, difference from the model group","[4]; FIG. 2, listed as recombinant fused polypeptide II",can lower the TGF-β1 content
same,"Inhibitory effect, Chlamydia pneumonia",Chlamydia pneumoniae,50.21 ± 4.85
same,"content of TGF-β1 in serum, difference from the model group",[5]; listed as recombinant fused polypeptide 2,highly significantly different from the model group (***P<0.001)
same,"content of TGF-β1 in serum, difference from the model group",[5]; [7],can lower the TGF-β1 content
same,"Inhibitory effect, Protozoal pneumonia",protozoa,66.13 ± 5.36
same,"Inhibitory effect, Viral pneumonia",adenovirus,58.08 ± 5.27

# — patent US12286461B2, “Recombinant fused polypeptide and use thereof” (priority 2019, dated 2025)
